In US20220356230A1 (published 2022):
Changes are numbered by the printed parent chain.

B1: mAb10956 (antibody, V domains shown)
VH: EVQLVESGGGLVQPGGSLRLSCAASGLTVSSNYMSWVRQAPGKGLEWVSVIYSGGSTFYADSVKGRFTISRDNSKNTLYLQMNSLRAEDTAVYYCARDLIKYGMDVWGQGTTVTVSS
VL: not shown
B2: mAb10985 (antibody, V domains shown)
VH: EVQLVESGGGLVQPGRSLRLSCAASGFTFDDYAMHWVRQAPGKGLEWVSGISWNRGSIGYADSVKGRFTISRDNAKNSLYLQMSSLRAEDTALYYCAKDGERWDSVVVPSARNGMDVWGQGTTVTVSS
VL: QSVLTQPPSVSGAPGQRVTISCTGSSSNIGAGYDVHWYQQLPGTAPKLLIYGNSNRPSGVPDRFSGSKSGTSASLAITGLQAEDEADYYCQSYDSSLSGSYVFGTGTKVTVLG
B3: mAb10986 (antibody, V domains shown)
VH: EVQLVESGGGLVQPGGSLRLSCAASEFTVSSNYMSWVRQAPGKGLEWVSVIYSGGSTFYADSVKGRFTISRDNSKNTLYLQMNSLRAEDTAVYYCARALPYGDLHFDYWGQGTLVTVSS
VL: B2 VL with A31T, S54T, G99D
B4: mAb10971 (antibody, V domains shown)
VH: B1 VH with V12I, L27V, A60S, T68S, I100Y, K101Y
VL: DIQLTQSPSFLSASVGDRVTITCRASQGISTYLAWYQQKPGKAPKLLIYAASTLQSGVPSRFSGSGSGTEFTLTISSLQPEDFATYYCQQLDSYPGLTFGGGTKVEIKR
B5: mAb10989 (antibody, V domains shown)
VH: QVQLVQSGAEVKKPGASVKVSCKASGYIFTGYYMHWVRQAPGQGLEWMGWINPNSGGANYAQKFQGRVTLTRDTSITTVYMELSRLRFDDTAVYYCARGSRYDWNQNNWFDPWGQGTLVTVSS
VL: QSALTQPASVSGSPGQSITISCTGTSSDVGTYNYVSWYQQHPGKAPKLMIFDVSNRPSGVSDRFSGSKSGNTASLTISGLQAEDEADYYCSSFTTSSTVVFGGGTKLTVLG
B6: mAb10964 (antibody, V domains shown)
VH: QVQLQESGPGLVKPSETLSLTCTVSGGSINNYYWIWIRQPPGKGLEWIGYIYHSGSTNYNPSLKSRVTISVDTSKNQFSLKVSSVTAADTAVYYCANMVRGVYEDDYWGQGTLVTVSS
VL: DIQMTQSPSSLSASVGDRVTITCRASQSISNYLNWYQQKPGKAPKLLIFAASSLRSGVPSRFSGSGSGTDFTLTISSLHPEDFATYYCQQNYNTPLTFGPGTKVDIKR
B7: mAb10954 (antibody, V domains shown)
VH: EVQLVESGGGLVQPGGSLRLSCAASGITVSSNYMSWVRQAPGKGLEWVSLIYSGGSTYYADSVKGRFTISRDNSKNTLYLQMNSLRVEDTAVYYCARDHGMAAAGYNYWGQGTLVTVSS
VL: DIQMTQSPSSLSASVGDRVTITCQASQDINKYLNWYQQKPGKAPKLLIYDASNLETGVPSRFSGSGSGTDFTFTINSLQPEDFATYFCQQYDNLPPAFGQGTKVEIKR
B8: mAb10967 (antibody, V domains shown)
VH: EVQLVESGGGLVQPGGSLRLSCAASGFTVSSNYMSWVRQAPGKGLEWVSVIYPGGSTFYADSVKGRFTISRDNSKNTLYLQMNSLRAEDTAVYYCARDQRDFAWGQGTLVTVSS
VL: B7 VL with N30S, K31N, N76S, S77G, F83I, F87Y, A97T, K103R, V104L
B9: mAb10966 (antibody, V domains shown)
VH: EVQLVESGGGLVQPGGSLRLSCAASGLTVSSNYMSWVRQAPGKGLEWVSVIYSGGSTFYADSVKGRFTISRDNSKNTLYLQMNSLRPEDTAVYYCAREGRIAATGYGMDVWGQGTTVTVSS
VL: not shown
B10: mAb10957 (antibody, V domains shown)
VH: B1 VH with L27V, Y79F, A87I, I100G, K101P
VL: B4 VL with T31S, E70Q, T72I, D92N, L97F, G101P, E106D
B11: mAb10939 (antibody, V domains shown)
VH: B1 VH with S35N, A40V, T57K, A60V, D72H, A87P, A96T, L99A, I100Q, K101Y
VL: DIQMTQSPSSLSASVGDRVTITCRASQSISTYLHWYQQKPGEAPKLLIYAASSLQSGVPSRFSGSGSGTDFTLTISSLQPEDFATYYCQQSYSTPPEIFGQGTKLEIKR
B12: mAb10982 (antibody, V domains shown)
VH: EVQLVESGGGLVQPGGSLRLSCAASGLTVSSNYMSWVRQAPGKGLEWVSVIYSGGTTYYADSVKGRFTISRHNSKNTLSLQMNSLRAEDTAVYYCARGEGANYYGMDVWGQGTTVTVSS
VL: B2 VL with A31T, S100Y, Y101V, T105G, V109L
B13: mAb10934 (antibody, V domains shown)
VH: not shown
VL: B7 VL with N30W, K31N, L33I, E55K, N76S, F83I, F87Y, Y91H, N93D, A97T
B14: mAb10935 (antibody, V domains shown)
VH: EVQLVESGGGLVQPGGSLRLSCAASGFTVSSNYMSWVRQAPGKGLEWVSLIYSGGSTYYADSVKGRFTISRHNSKNTLYLQMNSLRSEDTAVYYCARVPLGDYYYGMDVWGQGTTVTVSS
VL: B7 VL with N76S, F83I, F87Y, Y91S, P96L, A97T, Q100G
B15: mAb10921 (antibody, V domains shown)
VH: EVQLVESGGGLVQPGGSLRLSCAASGITVSSNYMSWVRQAPGKGLEWVSVIYSGGSTFYADSVKGRFTISRHNSKNTLYLQMNSLRAEDTAVYYCARERNFDAFDIWGQGTMVTVSS
VL: DIQMTQSPSSVSASVGDRVTITCRASQGISSWLAWYQQKPGKAPKLLIYAASSLQSGVPSRFSGSGSGTDFTLTISSLQPEDFATYYCQQANSFPLFTFGPGTKVDIKR
B16: mAb10930 (antibody, V domains shown)
VH: EVQLVESGGGLVQPGRSLRLSCAASGFTFDDYAMYWVRQAPGKGLEWVSGISWNSGSIGYADSVKGRFTISRDNAKNSLYLQMNSLRAADTALYYCAKDKDWNSRGYYYYGMDVWGQGTTVTVSS
VL: not shown
B17: mAb10937 (antibody, V domains shown)
VH: QITLKESGPTLVKPTQTLTLTCTFSGFSLSTNVVGVGWIRQPPGKALEWLALIYWNDDKRYSPSLKSRLTITKDTSKNQVVLTMTNMDPVDTATYYCAHGPTGDYFDYWGQGTLVTVSS
VL: not shown
B18: mAb10913 (antibody, V domains shown)
VH: EVQLVESGGGLVQPGGSLRLSCAASGFTFRNYEMNWVRQAPGKGLEWVSYITSSGSTMYYADSVKGRFTISRDNAKNSLYLQMNSLRAEDTAVYYCARDGFYYYYAMDVWGQGTTVTVSS
VL: QSVLTQPPSVSAAPGQKVTISCSGSSSNIGNNYVSWYQQLPGTAPKLLIYDNNKRPSGIPDRFSGSKSGTSATLGITGLQTGDEADYYCGTWDSSLSVGRVFGTGTKVTVLG
B19: mAb10932 (antibody, V domains shown)
VH: EVQLVESGGGLVQSGGSLRLSCAASGLTVSSNYMSWVRQAPGKGLEWVSVIYSGGSTFYSDSVKGRFTISRHNSKNTLYLQMNSLRAEDTAVYYCARARGDAFDIWGQGTMVTVSS
VL: not shown

molecular target: SARS-CoV-2 Spike Protein (S1 Subunit, Fc Tag) (Sino 40591-V02H) (SARS-CoV-2, UniProt P0DTC2 16-685); assay: Luminex bead assay, supernatant on antigen microspheres

| Binder | Binding signal (MFI) |
| --- | --- |
| B1 | 15000 |
| B2 | 16200 |
| B3 | 16000 |
| B4 | 17000 |
| B5 | 12300 |
| B6 | 18600 |
| B7 | 16600 |
| B8 | 15800 |
| B9 | 16400 |
| B10 | 8450 |

molecular target: SARS-CoV-2 Spike Protein (S1 Subunit, His Tag) (Sino 40591-V08H) (SARS-CoV-2, UniProt P0DTC2 16-685); assay: as above

| Binder | Binding signal (MFI) |
| --- | --- |
| B1 | 20000 |
| B3 | 19100 |
| B4 | 21600 |
| B5 | 14200 |
| B6 | 24200 |
| B7 | 21300 |
| B8 | 21900 |
| B9 | 23300 |
| B10 | 12000 |

molecular target: SARS-CoV-2 Spike Protein (S1 Subunit, Fc Tag) (Sino 40591-V02H) (SARS-CoV-2, UniProt P0DTC2 16-685); assay: Luminex bead assay, antibody supernatant, antigen on microspheres

| Binder | Binding signal (MFI) |
| --- | --- |
| B11 | 18200 |
| B12 | 10800 |
| B13 | 20600 |
| B14 | 20000 |
| B15 | 8960 |
| B16 | 16500 |
| B17 | 19600 |
| B18 | 18900 |
| B19 | 17600 |

molecular target: SARS-CoV-2 Spike Protein (S1 Subunit, His Tag) (Sino 40591-V08H) (SARS-CoV-2, UniProt P0DTC2 16-685); assay: as above

| Binder | Binding signal (MFI) |
| --- | --- |
| B11 | 23900 |
| B12 | 14000 |
| B13 | 27500 |
| B14 | 25600 |
| B15 | 12200 |
| B16 | 21200 |
| B17 | 26400 |
| B18 | 24900 |
| B19 | 22100 |
